Here are results for one molecule from patent US20150232572A1 (UNIVERSIT DE LI GE, published 2015).

Assay [1] has as its target T1, recombinant MT1-MMP (MMP14) catalytic domain (UniProt P50281 112-284, limits assumed).
T1 construct: domain: catalytic domain
In words: ELISA.

Assay [2] deals with T2, recombinant MT3-MMP (MMP16) catalytic domain (UniProt P51512 120-292, limits assumed).
T2 construct: domain: catalytic domain
In words: ELISA. Background: An ELISA detects its analyte on a solid surface through an enzyme-linked reagent.

For assay [3], the target named is T3, recombinant MMP2 catalytic domain (UniProt P08253 110-452, limits assumed).
T3 construct: domain: catalytic domain
T3 sequence (P08253 110-452 limits assumed): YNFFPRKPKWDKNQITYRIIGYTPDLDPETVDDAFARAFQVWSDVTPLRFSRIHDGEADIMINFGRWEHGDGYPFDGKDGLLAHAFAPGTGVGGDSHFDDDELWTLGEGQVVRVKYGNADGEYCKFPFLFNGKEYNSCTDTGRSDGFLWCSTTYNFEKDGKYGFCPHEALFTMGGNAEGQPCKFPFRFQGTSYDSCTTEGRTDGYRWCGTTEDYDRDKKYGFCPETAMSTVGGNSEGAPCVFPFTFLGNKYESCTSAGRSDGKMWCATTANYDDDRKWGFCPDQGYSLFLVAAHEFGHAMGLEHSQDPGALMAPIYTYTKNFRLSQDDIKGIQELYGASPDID
Nature of the assay: Western blot. In general terms: Immunoblotting shows a protein as a band on a membrane.

T2 sequence (P51512 120-292 limits assumed): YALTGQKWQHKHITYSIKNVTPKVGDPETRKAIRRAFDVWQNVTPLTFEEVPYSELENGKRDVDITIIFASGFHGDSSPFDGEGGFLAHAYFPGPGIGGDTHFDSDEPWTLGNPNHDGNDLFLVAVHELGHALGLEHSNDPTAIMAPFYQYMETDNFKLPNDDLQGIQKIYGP

B1: K4H7 scFv antibody (scFv)
scFv: QVQLVQSGGGLVKPGRSLRLSCTASGFTFGDYAMSWFRQAPGKGLEWVGFIRSKAYGGTTEYAASVKGRFTISRDDSKSIAYLQMNSLKTEDTAVYYCTRGSSGWFLNWFDPWGQGTLVTVSSLEGGGGSGGGGSGGGGSELETTLTQSPATLSLSPGERATLSCRASQSISSSYLAWYQHKPGQAPRLLIYGASRRATGIPDRFSGSGSGTDFSLTISRLEPEDFAVYYCLHYGSSKWTFGQGTKVEIKR
notes: Human scFv from the VTT naive phage display libraries; Purified scFv clones contain a myc tag (produced as soluble scFv-myc-his fusions); also called K4H7 clone; scFV clone K4H7
As for B1, the binding result was “no binding (tested: 3 µg of recombinant protein)” in assay [1], “no binding (tested: 3 µg of recombinant protein)” in assay [2] and “no binding (tested: scFv 1 µg/ml)” in assay [3].
